Results from patent publication US20250145724A1 (TWIST BIOSCIENCE, published 2025).
Substitutions are numbered along the chain they refer to. Names may count otherwise.

Assays:
[1] = molecular target: T1, Adenosine A2A receptor (human) (human, UniProt P29274 1-412); experiment: cell binding titration from 100 nM, RL1-H MFI; panel 'Immune Library to A2a protein + ZM241385'
T1 construct: also called hA2a; hA2a receptor

[2] = molecular target: T1, Adenosine A2A receptor (human); experiment: cell binding titration from 100 nM, RL1-H MFI; panel 'Mouse Immune Library to A2a protein'
[3] = molecular target: T2, hA2b receptor (human, UniProt P29275 1-332); experiment: cell binding on hA2b HEK293T cells, one bar per antibody; the y axis has no label or unit and the antibody concentration is not given
T2 construct: whole, on cells; also called adenosine A2B receptor
T2 sequence (looked up): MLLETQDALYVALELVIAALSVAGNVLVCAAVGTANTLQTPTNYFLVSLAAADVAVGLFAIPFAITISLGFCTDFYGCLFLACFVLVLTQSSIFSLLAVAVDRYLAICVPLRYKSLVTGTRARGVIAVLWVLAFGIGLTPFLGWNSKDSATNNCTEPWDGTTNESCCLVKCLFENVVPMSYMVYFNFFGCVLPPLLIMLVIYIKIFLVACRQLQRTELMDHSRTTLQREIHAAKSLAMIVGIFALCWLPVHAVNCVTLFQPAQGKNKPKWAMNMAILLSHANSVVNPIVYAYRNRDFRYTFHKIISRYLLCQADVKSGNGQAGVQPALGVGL

[4] = molecular target: T1, Adenosine A2A receptor (human); experiment: cell-based or functional assay
[5] = molecular target: T1, Adenosine A2A receptor (human); experiment: flow cytometry titration of IgG from 100 nM on hA2a (RL1-H MFI against IgG in nM); EC50 from the table drawn beside the curves
[6] = molecular target: T1, Adenosine A2A receptor (human); experiment: cell-based or functional assay; remark: listed apart in the source
[7] = molecular target: T2, hA2b receptor; experiment: In vitro specificity, flow cytometry MFI at 100 nM IgG on hA2b
[8] = molecular target: T3, hA1 receptor (human, UniProt P30542 1-326); experiment: In vitro specificity, flow cytometry MFI at 100 nM IgG on hA1
T3 construct: whole, on cells
T3 sequence (looked up): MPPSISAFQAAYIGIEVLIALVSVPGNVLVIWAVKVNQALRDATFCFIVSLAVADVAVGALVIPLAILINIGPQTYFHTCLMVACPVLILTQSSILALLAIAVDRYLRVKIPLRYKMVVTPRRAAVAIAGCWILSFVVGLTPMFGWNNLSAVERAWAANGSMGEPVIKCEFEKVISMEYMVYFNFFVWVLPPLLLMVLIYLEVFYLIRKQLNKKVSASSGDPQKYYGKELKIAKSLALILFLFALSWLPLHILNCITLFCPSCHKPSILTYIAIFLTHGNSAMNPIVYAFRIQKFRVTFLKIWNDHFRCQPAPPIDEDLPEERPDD

[9] = molecular target: T4, hA3 receptor (human, UniProt P0DMS8 1-318); experiment: In vitro specificity, flow cytometry MFI at 100 nM IgG on hA3
T4 construct: whole, on cells
T4 sequence (looked up): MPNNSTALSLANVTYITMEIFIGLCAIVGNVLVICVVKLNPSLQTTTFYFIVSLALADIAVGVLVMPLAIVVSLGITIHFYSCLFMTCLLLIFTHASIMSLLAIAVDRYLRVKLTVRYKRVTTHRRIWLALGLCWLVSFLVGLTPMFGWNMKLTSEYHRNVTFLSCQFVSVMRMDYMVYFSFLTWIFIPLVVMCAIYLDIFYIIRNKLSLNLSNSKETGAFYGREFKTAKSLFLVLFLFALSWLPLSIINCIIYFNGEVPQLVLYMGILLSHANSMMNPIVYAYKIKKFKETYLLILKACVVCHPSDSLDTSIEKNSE

[10] = molecular target: T1, Adenosine A2A receptor (human); experiment: flow cytometry titration 0.05-100 nM IgG, MFI; grey curve and grey number taken as HEK293-A2a cells, black (ND) as parent cells, no legend on the sheet
[11] = molecular target: T1, Adenosine A2A receptor (human); experiment: cell binding titration from 100 nM, RL1-H MFI; panel 'Synthetic Library to A2a protein + ZM241385'
[12] = molecular target: T1, Adenosine A2A receptor (human); experiment: flow cytometry titration 0.05-100 nM IgG, MFI; grey curve taken as HEK293-A2a cells, black as parent cells

T1 sequence (P29274 whole entry): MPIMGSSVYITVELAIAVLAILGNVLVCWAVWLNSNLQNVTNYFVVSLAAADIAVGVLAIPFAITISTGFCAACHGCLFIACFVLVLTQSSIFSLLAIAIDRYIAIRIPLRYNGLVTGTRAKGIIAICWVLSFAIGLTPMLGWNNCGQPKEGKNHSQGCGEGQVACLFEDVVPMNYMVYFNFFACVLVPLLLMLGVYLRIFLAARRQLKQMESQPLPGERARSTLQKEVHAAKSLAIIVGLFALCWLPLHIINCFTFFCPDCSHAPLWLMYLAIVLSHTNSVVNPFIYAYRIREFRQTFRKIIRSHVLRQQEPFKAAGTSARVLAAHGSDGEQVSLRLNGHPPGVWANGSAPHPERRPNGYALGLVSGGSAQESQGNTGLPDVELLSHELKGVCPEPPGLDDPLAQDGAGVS

B1: A2A – 79 (antibody, V domains shown)
VH: QVQLQESGGGVVRPGGSLRLSCAASGFTFDDYGMSWVRQVPGKGLEWVSGITWNGDRSGYADSVKGRFTISRDNAKNSLYLQMNSLRAEDTALYYCVRDGLTGIFDYWGQGTLVTVSS
VL: ELTLTQSPATLSVSPGERATLSCRASQSVSSYLAWYQQKPGQAPRLLIYGASSRATGIPDRFSGSGSGTDFTLTISRLEPEDFAVYYCQQYGNSYTFGQGTKVDIK
notes: panel 'Immune Library to A2a protein + ZM241385'
Does B1 bind [1]?
Result: binds

B2: A2A-84 (antibody, V domains shown)
VH: EVQLVESGGGLVKPGGSLRLSCAASGYTFTEYITHWVRQAPGKGLEWVATISGGGSYTNFPDSVKGRFTISRDNAKNTLFLQMTSLRSEDTAMYYCARPNYSGSSPFAYWGQGTLVTVSA
VL: DIVMTQAPAIMSASPGEKVTMTCSASSSVSYMYWYQQKPGSSPRFLIYDTSNLASGVPVRFSGSGSGTSYSLTISSMEAEDAATYYCQQWNSNPLTFSAGTKLEIK
notes: Tested as IgG
Does B2 bind [2]?
Result: binds

B3: A2A-88 (antibody)
heavy chain variable region: EVQLVESGGGLVKPGGSLRLSCAASGFTFRTYGMHWVRQAPGKGLEWVAVISAEGSNKYYADSVKGRFTISRDNSKNTLYLQMNSLRAEDTAVYYCARDGRGSLPRPKGGFIGALSFHWPFGRWLGGSYGTYDSSEDSGGAFDIWGQGTLVTVSS
light chain variable region: QSVLTQPPSVSAAPGQKVTISCSGISSNIGNNYVSWYQQLPGTAPKLLIYDNNKRASGIPDRFSGSKSGTSATLGITGLQTGDEADYYCGTWDTSLSAGVFGGGTKLTVL
Does B3 bind [3]?
Result: binds

B4: A2A-77 (antibody, V domains shown)
VH: QVQLQESGPGLVKPSGTLSLTCAVSGGSISSSNWWSWVRQPPGKGLEWIGEIYHSGNTNYNPSLKSRVTMSVDKSKNQFSLNLHSVTAADTAVYYCAREVVSGMIGTIFDYWGQGTLVTVSS
VL: ELVMTQSPSSLSASVGDRVTITCRASQRISSYLNWYQQKPGKAPKLLIYAASSLQSRVPSRFSGSGSGTDFTLTISSLQPEDFATYYCQQSYSTPLTFGGGTKLETK
notes: Tested as IgG
What does the source list for B4?
IC50 (antagonistic cAMP assay, RFU ratio 665/615nm against IgG in nM) [4]: 3.52 nM; EC50 [5]: 5.76 nM; IC50, T cell activation assay (FIG. 32C) [6]: 5.92 nM; EC50 (read off the curve) [1]: ~5 nM

B5: A2A-81 (antibody, V domains shown)
VH: B4 VH with N57S, M70I, N82K, H84G, M104L, I105Y
VL: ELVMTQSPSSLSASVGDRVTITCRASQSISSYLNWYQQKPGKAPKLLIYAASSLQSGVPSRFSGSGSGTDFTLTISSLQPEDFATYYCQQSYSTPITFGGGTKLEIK
notes: Tested as IgG
Does B5 bind [7]?
Result: no binding (tested: 100 nM)

Does B5 bind [8]?
Result: no binding (tested: 100 nM)

Does B5 bind [9]?
Result: no binding (tested: 100 nM)

B6: A2A-75 (antibody, V domains shown)
VH: B4 VH
VL: B4 VL with S7F, R28S, R57G, S91A, Y92N, T94F, L96I, G100Q, K103R, T106I
notes: Tested as IgG
Does B6 bind [3]?
Result: no binding

B7: A2A-78 (antibody, V domains shown)
VH: EVQLLESGGGLVQPGGSLRLSCAASGFTFSAYDIYWVRQPTGKGLEWVSAIGTAGDTYYPGSVKGRFIISRESAKNSVYLQMNSLRAGDTAVYYCAVGYNWVFDLWGQGTLVTVSS
VL: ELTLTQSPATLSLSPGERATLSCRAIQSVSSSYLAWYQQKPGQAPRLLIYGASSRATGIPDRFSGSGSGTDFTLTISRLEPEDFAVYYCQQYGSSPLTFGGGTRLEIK
notes: Tested as IgG
B7 was tested. Which “EC50 (read off the curve)” value [1] did it give?
Its value is ~5 nM.

B8: A2A-9 (antibody, V domains shown)
VH: EVQLQQSGPGLVKPSQSLSLTCSVTGYSITSGYYWNWIRQFPGKKLEWMGYIRYDGSNNYNPSLKNRISITRDTSKNQFFLKLNSVTTDDTATYYCARVHHYYGSSYFDYWGQGTTLTVSS
VL: DIVMTQSQKFMSTSVGDRVSATCKASQNVGSSVAWFQQKPGQSPKALIYSTSYRYSGVPDRFTGSGSGTDFTLTISNVQSEDLAEYFCQQYNSYPLTFGAGTKLEIK
notes: Tested as IgG
With B8 as the binder, how does the EC50 [10] read?
Its EC50 is 3.83 nM.

B9: A2A-83 (antibody, V domains shown)
VH: EVQRVQSGAELVKPGASVKISCKASGYAFSSYWMNWVKQRPGKGLEWIGQIYPGDGDTNYNGKFEGKATLTADKSSSTAYMQLTSLTSDDSAVYYCARGAYWGQGTTLTVSS
VL: B8 VL with V3Q, T5K, A21V, S31T, S32N, F36Y, T51A, E81G
notes: Tested as IgG
Does B9 bind [3]?
Result: binds

B10: A2A – 80 (antibody, V domains shown)
VH: QVQLVQSGGGLVKPGGSLRLSCAASGFTISTYDIYWVRQATGKGLEWVSAIGTAGDTYYPGSVKGRFTISRENAKNSLYLQMNSLRAGDTAVYYCASGYNWIFDYWGQGTLVTVSS
VL: ELTLTQSPGTLSLSPGERATLSCRASQSVSSNLAWYQQKPGQAPRLLIYGASTRATGTPARFSGSGSGTEFTLTISSLQSEDFAVYYCQQYGSSPPTFGQGTRLEIK
notes: as for B1
Does B10 bind [1]?
Result: binds

B11: A2A-26 (antibody, V domains shown)
VH: EVQLLESGGGLVQPGGSLRLSCAASGFTFSTYAMGWVRQAPGKGLEWVSGISGSAGSTYYADSVKGRFTISRDNSKNTLYLQMNSLRAEDTAVYYCAAARGHWRWRLGRRYDYWGQGTLVTVSS
VL: DIQMTQSPSSLSASVGDRVTITCRASQTISRYLNWYQQKPGKAPKLLIYSASTLQSGVPSRFSGSGSGTDFTLTISSLQPEDFATYYCQQSYSTPHTFGGGTKVEIK
notes: Tested as IgG
Does B11 bind [11]?
Result: binds

Does B11 bind [3]?
Result: binds

B12: A2A-19 (antibody, V domains shown)
VH: B11 VH with L5V, Q13K, T31G, G35N, G50T, A55G, G56A, H102Y, W103K
VL: B11 VL with T28S, R31D, S50T, Q89E, H96W, V104L
notes: Tested as IgG
Does B12 bind [3]?
Result: binds

B13: A2A-35 (antibody, V domains shown)
VH: B11 VH with L5V, Q13K, A33G, G35S, A55G, Y59N, H102K
VL: B11 VL with T28S, S30G, S50A, T53S, Q55H, S93V, H96W
notes: Tested as IgG
Does B13 bind [3]?
Result: binds

B14: A2A-27 (antibody, V domains shown)
VH: B11 VH with L5V, Q13K, T31S, G35A, G50A, A55G, Y60F, H102Y, G108W
VL: B11 VL with T28S, S30G, R31S, S50G, T53N, S91G, T94A, H96R, V104L
notes: Tested as IgG; also called A2A-27 (Alloy)
Does B14 bind [11]?
Result: binds

Does B14 bind [3]?
Result: binds

B15: A2A-15 (antibody, V domains shown)
VH: B11 VH with L5V, Q13K, A33G, G35S, A55G, Y59N, H102K
VL: B11 VL with T28S, S30G, S50A, T53S, Q55H, S93V, H96W, V104L
Does B15 bind [12]?
Result: no binding (tested: 100 nM)
